Target: T1, HA-tagged PHLPP1 N-terminal extension (PHLPP1 NTE), residues 1-512 (UniProt O60346 1-512)
T1 construct: PH domain Leucine-rich repeat Protein Phosphatase 1 (PHLPP1), N-terminal extension, residues 1-512 of the 1717-residue protein; also called HA-NTE; pCDNA3 HA PHLPP1 NTE-WT; source: HEK-293T, transfected, in lysate; not shown: HA, N-terminal, kept
T1 sequence (looked up): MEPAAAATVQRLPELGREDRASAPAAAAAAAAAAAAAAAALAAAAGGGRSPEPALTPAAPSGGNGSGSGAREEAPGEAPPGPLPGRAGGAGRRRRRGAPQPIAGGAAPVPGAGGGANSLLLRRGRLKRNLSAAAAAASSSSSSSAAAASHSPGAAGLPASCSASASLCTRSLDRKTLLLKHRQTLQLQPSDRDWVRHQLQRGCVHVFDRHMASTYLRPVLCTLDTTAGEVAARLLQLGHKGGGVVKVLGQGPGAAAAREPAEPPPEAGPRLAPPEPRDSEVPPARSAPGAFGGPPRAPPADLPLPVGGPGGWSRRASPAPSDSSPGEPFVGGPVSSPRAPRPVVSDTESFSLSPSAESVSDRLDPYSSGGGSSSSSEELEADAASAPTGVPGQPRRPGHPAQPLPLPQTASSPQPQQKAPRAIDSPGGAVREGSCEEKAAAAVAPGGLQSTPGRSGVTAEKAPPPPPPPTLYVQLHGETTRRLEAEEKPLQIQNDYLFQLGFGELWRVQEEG
Test: co-IP; HEK-293T cells transfected with HA-tagged PHLPP1 constructs and GFP-STAT1; detergent-solubilized lysates incubated with anti-HA antibody at 4°C overnight, protein A/G agarose 1 hr at 4°C, washed three times in lysis buffer with 0.3 M NaCl and 0.1% Triton X 100; blot probed with GFP antibody; GFP-STAT1 IP divided by HA IP, normalized to HA-NTE IP, three independent experiments
Details: partners not purified

fold binding against PHLPP1 lacking the NTE: ~26 fold
fold binding against full-length PHLPP1: ~5 fold
B1: GFP-STAT1 (natural protein, UniProt P42224 1-750, looked up)
chain: MSQWYELQQLDSKFLEQVHQLYDDSFPMEIRQYLAQWLEKQDWEHAANDVSFATIRFHDLLSQLDDQYSRFSLENNFLLQHNIRKSKRNLQDNFQEDPIQMSMIIYSCLKEERKILENAQRFNQAQSGNIQSTVMLDKQKELDSKVRNVKDKVMCIEHEIKSLEDLQDEYDFKCKTLQNREHETNGVAKSDQKQEQLLLKKMYLMLDNKRKEVVHKIIELLNVTELTQNALINDELVEWKRRQQSACIGGPPNACLDQLQNWFTIVAESLQQVRQQLKKLEELEQKYTYEHDPITKNKQVLWDRTFSLFQQLIQSSFVVERQPCMPTHPQRPLVLKTGVQFTVKLRLLVKLQELNYNLKVKVLFDKDVNERNTVKGFRKFNILGTHTKVMNMEESTNGSLAAEFRHLQLKEQKNAGTRTNEGPLIVTEELHSLSFETQLCQPGLVIDLETTSLPVVVISNVSQLPSGWASILWYNMLVAEPRNLSFFLTPPCARWAQLSEVLSWQFSSVTKRGLNVDQLNMLGEKLLGPNASPDGLIPWTRFCKENINDKNFPFWLWIESILELIKKHLLPLWNDGCIMGFISKERERALLKDQQPGTFLLRFSESSREGAITFTWVERSQNGGEPDFHAVEPYTKKELSAVTFPDIIRNYKVMAAENIPENPLKYLYPNIDKDHAFGKYYSRPKEAPEPMELDGPKGTGYIKTELISVSEVHPSRLQTTDNLLPMSPEEFDEVSRIVGSVEFDSMMNTV
notes: STAT1, detected in the co-IP by its GFP tag; the methods give no source or limits for it; source: HEK-293T, transfected, in lysate

Reference: article PMC6692130, “PHLPP1 counter-regulates STAT1-mediated inflammatory signaling” (eLife, 2019)
